Measured values reported in patent US20110250613A1, “Arrayed Multiple Ubiquitin Binding Domains as Linkage-specific Polyubiquitin Affinity Reagents” (THE JOHNS HOPKINS UNIVERSITY, priority 2009, published 2011).

Experiments:
Details in all cases: free fluorescent UBA domain
K63-Ub2 = target: T1, K63-Ub2 (Homo sapiens, UniProt P0CG47, K63R); test: Fluorescence anisotropy binding of fluorescent free UBA domains to K63-Ub2
T1 construct: Ub and K48- and K63-linked diUb and tetraUb were made as described; made in house
From the text: (§1) Fluorescent Labeling. Ede1 UBA, hHR23A UBA1, Dsk2 UBA and Ddi1 UBA were produced as intein fusions and fluorescently labeled using expressed protein ligation as described in Scheibner et al., 2003. The dipeptide used for Ede1 labeling was Cys-Lys, with NHS-rhodamine (Pierce) coupled to the lysine amino group, and was a kind gift from Philip Cole (Johns Hopkins School of Medicine). MALDI mass spectroscopy confirmed the addition of the fluorescent dipeptide to the Ede1 UBA domain and that there was complete cleavage of the initiating methionine residue. hHR23A UBA1, Dsk2, and Ddi1 UBAs were labeled in a similar way, except that the dipeptide contained a fluorescein moiety instead of rhodamine. The fluorescein-labeled dipeptide was made as described in Scheibner et al., 2003. […]
(§2) Fluorescence Anisotropy Binding Assays. Fluorescence anisotropy measurements were performed as described (Sims and Cohen, 2009) using excitation and emission maxima of 492 nm/520 nm (fluorescein), 556 nm/569 nm (Alexa Fluor 546), or 555 nm/578 nm (rhodamine), in binding buffer at 25° C. The concentrations of the fluorescent proteins were calculated using published extinction coefficients (Invitrogen-Molecular Probes). polyUb concentrations were assessed from absorbance at 280 nm using the Ub extinction coefficient of 0.16 (mg per ml)^−1 cm^'1.49. […]

K48-Ub2 = target: T2, K48-Ub2 (Homo sapiens, UniProt P0CG47, K48R); test: Fluorescence anisotropy binding of fluorescent free UBA domains to K48-Ub2
T2 construct: Ub and K48- and K63-linked diUb and tetraUb were made as described; made in house
From the text: as §1, §2

K63-Ub4 = target: T3, K63-Ub4 (Homo sapiens, UniProt P0CG47, K63R); test: Fluorescence anisotropy binding of fluorescent free UBA domains to K63-Ub4
T3 construct: Ub and K48- and K63-linked diUb and tetraUb were made as described; made in house
From the text: as §1, §2

K48-Ub4 = test: Fluorescence anisotropy binding of fluorescent free UBA domains to K48-Ub4
From the text: as §1, §2

Kd (K63-Ub2): 120 µM | Kd (K48-Ub2): 86 µM | Kd (K63-Ub4): 54 µM | Kd (K48-Ub4): 31 µM
B1: Ede1 (protein, UniProt P34216 1-1381, looked up)
EH domain-containing and …: MASITFRTPLSSQEQAFYNQKFHQLDTEDLGVVTGEAVRPLFASSGLPGQLLSQVWATVDIDNKGFLNLNEFSAALRMIAQLQNAPNQPISAALYESTPTQLASFSINQNPAPMQSGSATGNTNNTDIPALSSNDIAKFSQLFDRTAKGAQTVAGDKAKDIFLKARLPNQTLGEIWALCDRDASGVLDKSEFIMAMYLIQLCMSHHPSMNTPPAVLPTQLWDSIRLEPVVVNQPNRTTPLSANSTGVSSLTRHSTISRLSTGAFSNAASDWSLSFEKKQQFDAIFDSLDKQHAGSLSSAVLVPFFLSSRLNQETLATIWDLADIHNNAEFTKLEFAIAMFLIQKKNAGVELPDVIPNELLQSPALGLYPPNPLPQQQSAPQIAIPSRASKPSLQDMPHQVSAPAVNTQPTVPQVLPQNSNNGSLNDLLALNPSFSSPSPTKAQTVVQNNTNNSFSYDNNNGQATLQQQQPQQPPPLTHSSSGLKKFTPTSNFGQSIIKEEPEEQEQLRESSDTFSAQPPPVPKHASSPVKRTASTTLPQVPNFSVFSMPAGAATSAATGAAVGAAVGAAALGASAFSRSSNNAFKNQDLFADGEASAQLSNATTEMANLSNQVNSLSKQASITNDKKSRATQELKRVTEMKNSIQIKLNNLRSTHDQNVKQTEQLEAQVLQVNKENETLAQQLAVSEANYHAAESKLNELTTDLQESQTKNAELKEQITNLNSMTASLQSQLNEKQQQVKQERSMVDVNSKQLELNQVTVANLQKEIDGLGEKISVYLTKQKELNDYQKTVEEQHAQLQAKYQDLSNKDTDLTDREKQLEERNRQIEEQENLYHQHVSKLQEMFDDLSQRKASFEKADQELKERNIEYANNVRELSERQMNLAMGQLPEDAKDIIAKSASNTDTTTKEATSRGNVHEDTVSKFVETTVENSNLNVNRVKDDEEKTERTESDVFDRDVPTLGSQSDSENANTNNGTQSGNETANPNLTETLSDRFDGDLNEYGIPRSQSLTSSVANNAPQSVRDDVELPETLEERDTINNTANRDNTGNLSHIPGEWEATPATASTDVLSNETTEVIEDGSTTKRANSNEDGESVSSIQESPKISAQPKAKTINEEFPPIQELHIDESDSSSSDDDEFEDTREIPSATVKTLQTPYNAQPTSSLEIHTEQVIKYPAPGTSPSHNEGNSKKASTNSILPVKDEFDDEFAGLEQAAVEEDNGADSESEFENVANAGSMEQFETIDHKDLDDELQMNAFTGTLTSSSNPTIPKPQVQQQSTSDPAQVSNDEWDEIFAGFGNSKAEPTKVATPSIPQQPIPLKNDPIVDASLSKGPIVNRGVATTPKSLAVEELSGMGFTEEEAHNALEKCNWDLEAATNFLLDSA
